FireProtDB (doi:10.1126/science.aai7825)

Conditions: Escherichia coli (strain K12); pH 7.5; Thermal; Intensity; HEPES 20mM; transition: 2

Adenylate kinase wild type, P69441, sequence (P69441 whole entry): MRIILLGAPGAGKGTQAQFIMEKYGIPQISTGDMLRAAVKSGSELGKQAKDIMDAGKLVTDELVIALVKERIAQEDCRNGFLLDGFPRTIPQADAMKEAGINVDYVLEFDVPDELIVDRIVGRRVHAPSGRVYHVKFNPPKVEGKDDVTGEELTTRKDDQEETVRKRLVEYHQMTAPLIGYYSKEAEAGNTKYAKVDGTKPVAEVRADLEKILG

Substance: Adenylate kinase wild type, P69441
- Tm: 42.5 °C
